Source: PMC13043311, “2′-O-Methyl-guanosine RNA fragments antagonize TLR7 and TLR8 to limit autoimmunity”

Columns and labels:
Details in all cases: protein: recombinant; chain copies: 2; single-stranded
TLR7 F506L = biological target: T1, TLR7 F506L (Macaca mulatta, UniProt B3Y653 27-839, F506L); experiment: SPR; mean computed from runs 4±0.5, 5±0.6, 5±2; SPR with recombinant TLR7/TLR8; buffer, pH and temperature not in the material
T1 sequence: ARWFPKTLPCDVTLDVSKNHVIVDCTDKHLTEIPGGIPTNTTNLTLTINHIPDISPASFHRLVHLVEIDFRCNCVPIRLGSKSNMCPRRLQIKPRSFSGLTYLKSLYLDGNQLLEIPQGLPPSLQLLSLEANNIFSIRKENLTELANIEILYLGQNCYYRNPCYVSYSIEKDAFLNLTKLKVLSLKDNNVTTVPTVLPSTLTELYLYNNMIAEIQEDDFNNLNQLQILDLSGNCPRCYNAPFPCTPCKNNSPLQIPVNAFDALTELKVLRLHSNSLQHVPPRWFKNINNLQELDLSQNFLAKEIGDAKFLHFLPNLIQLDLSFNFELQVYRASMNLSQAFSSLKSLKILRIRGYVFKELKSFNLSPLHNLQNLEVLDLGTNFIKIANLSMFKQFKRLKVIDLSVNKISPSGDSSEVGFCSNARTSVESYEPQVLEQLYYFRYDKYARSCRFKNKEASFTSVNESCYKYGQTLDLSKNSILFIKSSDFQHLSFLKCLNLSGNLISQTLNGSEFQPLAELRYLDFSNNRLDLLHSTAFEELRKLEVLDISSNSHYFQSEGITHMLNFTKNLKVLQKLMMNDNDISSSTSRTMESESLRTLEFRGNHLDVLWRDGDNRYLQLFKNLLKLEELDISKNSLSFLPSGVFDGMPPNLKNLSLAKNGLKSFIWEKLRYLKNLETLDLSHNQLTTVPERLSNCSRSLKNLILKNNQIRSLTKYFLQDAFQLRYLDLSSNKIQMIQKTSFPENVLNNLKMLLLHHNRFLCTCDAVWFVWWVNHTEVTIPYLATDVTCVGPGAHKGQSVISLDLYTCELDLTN

TLR7 WT (mmTLR7) [1] = biological target: T2, TLR7 WT (mmTLR7) (Macaca mulatta, UniProt B3Y653 27-839); experiment: SPR; mean computed from runs 0.9±0.3, 2±0.5, 1.4±0.6; SPR with recombinant TLR7/TLR8; buffer, pH and temperature not in the material
T2 sequence: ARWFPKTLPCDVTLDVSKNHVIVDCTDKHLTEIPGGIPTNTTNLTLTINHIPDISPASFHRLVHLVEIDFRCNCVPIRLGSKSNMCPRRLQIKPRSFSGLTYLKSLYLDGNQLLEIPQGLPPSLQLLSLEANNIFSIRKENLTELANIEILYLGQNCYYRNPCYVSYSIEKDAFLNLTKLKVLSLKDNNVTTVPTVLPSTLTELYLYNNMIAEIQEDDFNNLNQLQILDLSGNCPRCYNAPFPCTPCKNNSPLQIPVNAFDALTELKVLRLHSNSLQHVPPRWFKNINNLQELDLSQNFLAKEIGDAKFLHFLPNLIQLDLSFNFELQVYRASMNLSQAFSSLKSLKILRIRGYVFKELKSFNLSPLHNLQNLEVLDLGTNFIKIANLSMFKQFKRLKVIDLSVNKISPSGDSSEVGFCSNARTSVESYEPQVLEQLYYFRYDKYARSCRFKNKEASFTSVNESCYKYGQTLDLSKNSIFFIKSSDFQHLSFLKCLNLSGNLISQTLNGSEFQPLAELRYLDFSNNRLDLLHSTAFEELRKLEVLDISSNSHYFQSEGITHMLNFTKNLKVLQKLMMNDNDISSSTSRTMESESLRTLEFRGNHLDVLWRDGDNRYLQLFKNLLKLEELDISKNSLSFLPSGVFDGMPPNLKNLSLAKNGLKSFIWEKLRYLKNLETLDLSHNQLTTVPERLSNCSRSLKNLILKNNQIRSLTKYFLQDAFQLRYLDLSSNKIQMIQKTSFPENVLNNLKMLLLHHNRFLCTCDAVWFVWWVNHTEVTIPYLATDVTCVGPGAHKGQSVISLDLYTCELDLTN

TLR7 P435S = biological target: T3, TLR7 P435S (Macaca mulatta, UniProt B3Y653 27-839, P435S); experiment: SPR; mean computed from runs 5±0.6, 6±0.7, 6±0.7; SPR with recombinant TLR7/TLR8; buffer, pH and temperature not in the material
T3 sequence: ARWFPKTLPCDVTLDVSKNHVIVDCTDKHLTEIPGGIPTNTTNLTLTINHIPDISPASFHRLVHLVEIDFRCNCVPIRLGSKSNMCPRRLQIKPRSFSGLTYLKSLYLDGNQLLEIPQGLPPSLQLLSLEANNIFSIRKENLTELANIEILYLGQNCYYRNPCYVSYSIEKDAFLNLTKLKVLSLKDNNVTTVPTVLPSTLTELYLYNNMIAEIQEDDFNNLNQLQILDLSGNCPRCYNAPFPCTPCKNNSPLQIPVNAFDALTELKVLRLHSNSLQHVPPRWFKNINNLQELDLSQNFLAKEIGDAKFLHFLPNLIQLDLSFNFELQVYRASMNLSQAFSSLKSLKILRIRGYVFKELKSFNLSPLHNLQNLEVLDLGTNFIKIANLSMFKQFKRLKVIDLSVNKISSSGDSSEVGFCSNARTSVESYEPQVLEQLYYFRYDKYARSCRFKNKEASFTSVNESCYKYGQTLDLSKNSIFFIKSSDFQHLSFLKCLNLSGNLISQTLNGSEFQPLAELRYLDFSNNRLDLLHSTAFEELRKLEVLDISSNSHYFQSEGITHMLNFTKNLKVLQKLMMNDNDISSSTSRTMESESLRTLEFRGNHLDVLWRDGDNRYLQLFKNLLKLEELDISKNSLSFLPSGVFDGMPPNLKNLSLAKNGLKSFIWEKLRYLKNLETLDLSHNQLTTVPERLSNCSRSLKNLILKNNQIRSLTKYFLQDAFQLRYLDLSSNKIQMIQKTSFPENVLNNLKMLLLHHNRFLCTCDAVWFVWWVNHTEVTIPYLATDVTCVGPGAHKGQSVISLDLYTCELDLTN

TLR7 WT (mmTLR7) [2] = biological target: T2, TLR7 WT (mmTLR7); experiment: SPR; control of the nucleoside series; mean computed from runs 1±0.3, 3±0.9, 5±0.8; SPR with recombinant TLR7/TLR8; buffer, pH and temperature not in the material

Binder: GUC (XNA, 2'-OMe G1, RNA U2 C3; phosphorothioate linkages) [mGrUrC PS]
- Kd (TLR7 F506L): 4.67 µM
- Kd (TLR7 WT (mmTLR7) [1]): 1.43 µM
- Kd (TLR7 P435S): 5.67 µM
- Kd (TLR7 WT (mmTLR7) [2]): 3 µM
